{"source": "patent US9187558B2", "about": "“Anti-epithelial cell adhesion molecule (EpCAM) antibodies and methods of use thereof” (ACADEMIA SINICA, priority 2012, dated 2015)", "key": {"EpICD cleavage": {"test_system": "EpICD cleavage", "assay": "EpICD cleavage and cellular localization (confocal immunofluorescence, Western blot)", "type": "cell-based, human", "settings": "for EpICD cleavage: 24 h, TAPI 40 μM", "method": "Immunofluorescent Staining. Cells cultured on cover slips were fixed in paraformaldehyde, washed, and then blocked with 1% bovine serum albumin in PBS for 10 min. Cells were incubated at room temperature with primary antibodies in 1% bovine serum albumin. After 1 h incubation, cells were washed and incubated with fluorescein isothiocyanate (FITC) goat anti-mouse antibody (Jackson ImmunoResearch Laboratories), Alexafluor488 goat-anti-mouse or Alexaflour568 goat-anti-rabbit (INVITROGEN®) antibodies. 4′,6-Diamidino-2-phenylindole (DAPI) was added for nuclear counter staining.\n(§1) Immunoprecipitation and Western Blot Analysis. […] The supernatants were immunoprecipitated using anti-EpCAM antibodies."}, "[1]": {"test_system": "c-MYC, OCT4, NANOG, and SOX2 promoters", "assay": "Luciferase reporter assay of reprogramming gene promoters", "type": "cell-based, human", "method": "Luciferase Reporter Assay. Cells were seeded in a plate and co-transfected with pcDNA3.1, EpCAM, EpICD, or EpEX-expressing vectors (400 ng) and pGL4-Oct4-Luc, Nanog-Luc, Sox2-Luc, or c-Myc-Luc-expressing plasmid (100 ng) by PolyJET for 24 h. Promoter activities were measured by the Dul-Glo Luciferase kit (Promega), and the transfected efficiency was normalized by co-transfection with pRL-TK (20 ng) as an internal control."}, "HCT116 sphere cells": {"test_system": "HCT116 sphere cells", "assay": "Spheroid (tumorsphere formation) assay", "type": "cell-based, human", "method": "Spheroid Assay. For spheroid formation, culture cells were disassociated into single cells. 5×10^3 cells were seeded at an ultra-low 6-well plate (CORNING™ for 6 days and were maintained in DMEM/F12 supplemented with B27 (INVITROGEN®), EGF (10 ng/ml) and FGF (25 ng/ml) twice a week. The spheres were counted under a microscope. For serum-induced differentiation assay, tumorspheres were cultured in matrigel-coated plate supplemented with DMEM containing 10% FBS for 7 days to induce the differentiation process."}, "release of EpEX": {"test_system": "release of EpEX", "assay": "Release of EpEX into HCT116 culture supernatants (immunoprecipitation and Western blot)", "type": "cell-based, human", "settings": "HCT116 cells, 24 h; DAPT 50 μM, TAPI 40 μM", "text": "as §1"}, "[2]": {"test_system": "vimentin, snail, and slug", "assay": "EMT gene expression", "type": "cell-based, human", "method": "as §1\nRNA Extraction and Quantitative Real-Time RT-PCR. Total RNAs were prepared from the cell lines using ULTRASPEC RNA isolation reagent (Biotecx Laboratories, Houston, Tex.). cDNAs were reverse-transcribed using Super-Script III RNaseH-reverse transcriptase (INVITROGEN®, Carlsbad, Calif.) according to the manufacturer's instructions. Quantitative RT-PCR was performed by using the LightCycler480 System (Roche Applied Science). The gene expression level of each sample was normalized to the expression level of GAPDH in the same sample. The reactions were performed in triplicate, and S.D. values were calculated."}, "tumor invasiveness": {"test_system": "tumor invasiveness", "assay": "Invasion assay (Matrigel transwell)", "type": "cell-based", "method": "Colony Formation and Invasion Assay. For colony formation assay, cells were seeded at a density of 5×10^3 in 6-well plate for 10 day, followed by fixing and staining with crystal violet. For invasion assay, cells (1×10^5) were seeded at a transwell insert (8-μm polycarbonate Nucleopore filters, Corning) coated with Matrigel (BD Biosciences) at room temperature for 30 min to form a genuine reconstituted basement membrane. After 24 h incubation, cells were fixed with methanol for 10 min, and non-invaded cells were then removed by cotton swap. The invaded cells were observed by staining with DAPI, imaged under an inverted fluorescent microscopy (Zeiss), and quantified by ImageJ software."}, "[3]": {"test_system": "SAS and HCT116 cell lines", "assay": "Apoptosis assay, Annexin V-FITC and PI flow cytometry", "type": "cell-based, human", "settings": "0-20 μg/ml, 6 h", "method": "(§2) Apoptosis Assays. Cells were separately seeded and treated with 0-20 μg/ml mAbs for 6 h. Apoptotic cells were detected by Annexin V-FITC and PI and analyzed by a flow cytometer (BD imnmmunocytometry systems, San Jose, Calif.). Early apoptosis was measured with the Annexin V-FITC Apoptosis Detection kit II (BD Pharmingen, La Jolla, Calif.). Apoptotic nuclei were detected with propidium iodide (PI) staining."}, "[4]": {"test_system": "EpCAM mutants (Y95, D96 on EGF-II domain)", "settings": "mutations in positions Y95 or D96 on EGF-II domain; 1 μg/ml antibody", "quoted_text": "HEK293 cells at 80%-90% confluency in 6-well plates were transfected with plasmids of various EpCAMs. After two days transfection, the cells were washed with PBS. Cells were extracted with RIPA buffer, supplemented with a protease inhibitor mixture tablet and spun at 20,000 g for 30 min at 4° C. […] The signals were developed using enhanced chemiluminescence reagents (ECL) (Thermo Scientific, Rockford, Ill.)."}, "[5]": {"test_system": "SAS-derived oral cancer xenografts", "assay": "SAS-derived oral cancer xenograft antitumor efficacy", "settings": "n=6", "quoted_text": "Animal Model for Analysis of Antitumor Efficacy. […] Treatments were administered through tail vein injection, 10 mg/kg twice a week, for 4 consecutive weeks, with a total dose of 80 mg/kg. […] The tumor volumes were calculated as length×(width)^2×0.52."}, "[6]": {"test_system": "HCT116 and tumorsphere (HCT116 sphere) cells", "assay": "Hypodiploid DNA content by flow cytometry with PI staining", "type": "cell-based, human", "settings": "tumor and tumorsphere cells", "method": "as §2"}, "[7]": {"test_system": "human cancer cells (SAS, NPC039, HCT116, SKOV3)", "assay": "Cellular ELISA, Western blot and FACS binding to cancer cell lines", "settings": "Western blot, FACS", "method": "ELISA. 96-well plates (Corning Costar, St. Louis, Mo.) were seeded with SAS (oral carcinoma), NPC, HCT116 (colon cancer), SKOV3 (ovarian cancer cell line), NNM and HUVEC cells. The plates fixed with 2% paraformaldehyde and blocked with 1% bovine serum albumin. OCAb9-1 was added to the plates and incubated for 1 h. The plates were then washed with PBS containing 0.1% (w/v) TWEEN® 20 (PBST0.1) and incubated with horseradish peroxidase-conjugated anti-mouse IgG (Jackson ImmunoResearch Laboratories) for another 1 h. After washing, the plates were incubated with substrate solution o-phenylenediamine dihydrochloride (SIGMA™). The reaction was stopped by adding 3 N HCl, and the plates were read using a microplate reader at 490 nm.\nFlow Cytometry. SAS, HCT116 and NNM were dissociated with 0.25% trypsin-EDTA (1 mM) (INVITROGEN®) for 1-3 min. Cells were washed with fluorescence-activated cell sorting buffer (PBS containing 1% fetal calf serum) and then incubated for 1 h at 4° C. in fluorescence-activated cell sorting buffer with the OCAb9-1 and EpAb mAbs at dilutions that ranged from […]. Phycoerythrin-conjugated goat anti-mouse IgG was used as a secondary antibody (dilution 1:250; Jackson ImmunoResearch Laboratories (West Grove, Pa.) for 30 min at 4° C. After the final wash, the cells were re-suspended with 1% FBS in PBS and analyzed by flow cytometry (BD, San Jose, Calif.). […]"}, "CCD-1112Sk normal cells": {"test_system": "CCD-1112Sk normal cells", "assay": "Cellular ELISA binding to normal foreskin cells", "set-up": "species or system human"}, "[8]": {"settings": "HCT116 cells, sEpEX 2.5, 5 μg/ml"}}, "data": [{"molecule": "C[C@H](NC(=O)Cc1cc(F)cc(F)c1)C(=O)N[C@H](C(=O)OC(C)(C)C)c1ccccc1", "note": "[DAPT]", "values": [{"measurement": "expression of soluble EpICD-v5 (10 kDa)", "setting": "EpICD cleavage; 293T/EpCAM-v5 cells", "result": "reduced"}, {"measurement": "EpICD cleavage", "setting": "EpICD cleavage; HCT116 cells, DAPT 50 μM", "result": "inhibited EpICD cleavage"}, {"measurement": "soluble EpICD signals in cytoplasm and nucleus", "setting": "EpICD cleavage; HCT116 cells, DAPT 50 μM", "result": "blocked"}, {"measurement": "EpCAM-induced transcriptional activities of c-MYC, OCT4, NANOG, and SOX2", "setting": "[1]", "result": "blocked"}, {"measurement": "sphere-forming capacity", "setting": "HCT116 sphere cells", "result": "decreasing"}, {"measurement": "release of EpEX", "setting": "release of EpEX", "result": "blocked the release of EpEX"}, {"measurement": "expressions of vimentin, snail, and slug", "setting": "[2]", "result": "suppressed"}, {"measurement": "tumor invasiveness", "setting": "tumor invasiveness", "result": "decreasing"}]}, {"molecule": "TAPI", "values": [{"measurement": "EpICD cleavage", "setting": "EpICD cleavage; HCT116 cells, DAPT 50 μM", "result": "inhibited EpICD cleavage"}, {"measurement": "release of EpEX", "setting": "release of EpEX", "result": "blocked the release of EpEX"}]}, {"molecule": "EpAb2-6: one of five newly generated anti-EpCAM mAbs; VH SEQ ID NO: 2, VL SEQ ID NO: 3 (antibody, listed as Homo sapiens, V domains shown) VH: EVQLVESGPELKKPGETVKISCKASGYTFTDYSMHWVKQAPGKGLKWMGWINTETGEPTFADDFKGRFAFSLETSARTTYLQINNLKNEDTATYFCARTAVYWGQGTSLTVSS VL: DIQLTQSPSSLSASLGERVSLTCRASQEISVSLSWLQQKPDGTIKRLIYATSTLDSGVPKRFSGSRSGSDYSLTISSLESEDFADYYCLQYASYPWTFGGGTKLEIKRADAAPTVS", "values": [{"measurement": "induction of cancer cell apoptosis", "setting": "[3]", "result": "could induce cancer cell apoptosis"}, {"measurement": "relative binding activity to EpCAM mutants vs wild type", "setting": "[4]", "result": "markedly reduction"}, {"measurement": "tumor size of control PBS group relative to EpAb2-6 group", "setting": "[5]; 10 mg/kg i.v. twice a week", "result": 1.5, "unit": "fold"}, {"measurement": "median overall survival of tumor-bearing mice", "setting": "[5]; SAS xenograft", "result": 71, "unit": "days"}, {"measurement": "hypodiploid DNA content", "setting": "[6]", "result": "induced hypodiploid DNA content"}, {"measurement": "tumorsphere formation", "setting": "HCT116 sphere cells; 6 days treatment", "result": "suppressed tumorsphere formation effectively"}]}, {"molecule": "hEpAb2-6: CDRs of EpAb2-6 grafted onto human IgG1 backbone; VH SEQ ID NO: 24, VL SEQ ID NO: 25 (antibody, V domains shown, human IgG1 backbone; Humanized VH domain; Humanized VL domain) VH: VKLQESGPELKKPGETVKISCKASGYTFTDYSMHWVKQAPGKGLKWMGWINTETGEPTYADDFKGRFAFSLETSASTAYLQINNLKNEDTATYFCARTAVYWGQGTTVTVSS VL: DIQMTQSPSSLSASLGERVSLTCRASQEISVSLSWLQQEPDGTIKRLIYATSTLDSGVPKRFSGSRSGSDYSLTISSLESEDFVDYYCLQYASYPWTFGGGTKLEIKRADAAPTVS", "values": [{"measurement": "recognition of (binding to) human cancer cells", "setting": "[7]", "result": "recognized both SAS and HCT116 cancer cells"}, {"measurement": "induction of cancer cell apoptosis", "setting": "[3]", "result": "induced cancer cell apoptosis"}, {"measurement": "recognition of CCD-1112Sk normal cells", "setting": "CCD-1112Sk normal cells", "result": "not CCD-1112Sk normal cells"}]}, {"molecule": "sEpEX: soluble extracellular domain of EpCAM (protein, UniProt P16422 24-265, looked up, extracellular domain, soluble extracellular domain of EpCAM) extracellular domain: QEECVCENYKLAVNCFVNNNRQCQCTSVGAQNTVICSKLAAKCLVMKAEMNGSKLGRRAKPEGALQNNDGLYDPDCDESGLFKAKQCNGTSMCWCVNTAGVRRTDKDTEITCSERVRTYWIIIELKHKAREKPYDSKSLRTALQKEITTRYQLDPKFITSILYENNVITIDLVQNSSQKTQNDVDIADVAYYFEKDVKGESLFHSKKMDLTVNGEQLDLDPGQTLIYYVDEKAPEFSMQGLK", "values": [{"measurement": "induction of EpICD cleavage", "setting": "EpICD cleavage; [8]", "result": "inductions"}, {"measurement": "reporter activities of c-MYC, OCT4, NANOG, and SOX2", "setting": "[1]; HCT116 cells, sEpEX 2 μg/ml", "result": "induced reporter activities"}, {"measurement": "induction of vimentin expression", "setting": "[2]; [8]", "result": "inductions"}]}]}
